Measured values as given in publication PMC9697525, “A High-Quality CdSe/CdS/ZnS Quantum-Dot-Based FRET Aptasensor for the Simultaneous Detection of Two Different Alzheimer’s Disease Core Biomarkers”.

B1: AbO aptamer (ssDNA)
DNA: GCCTGTGTTGGGGCGGGTGCG
modifications: 5'-HS-(CH2)6
B2: tau aptamer (ssDNA)
DNA: GCGGAGCGTGGCAGG
modifications: 5'-HS-(CH2)6

Tests used:
[1] = molecular target: amyloid-beta oligomer (AbO), from Abeta(1-40) peptide (UniProt P05067 672-711); assay: FRET fluorescence recovery (displacement from Au NRs@PDA); Au NRs@PDA quencher; LOD 50 pM (not a Kd); QD-aptamer conjugates (in deionized water) with 0.5 mg/mL Au NRs@PDA stock (55 uL to 20 uL), 30 min quench, then 120 min with protein at room temperature; excitation 405 nm; buffer, salt and pH not stated; conditions: protein: commercial; label: QDs625 (CdSe/CdS/ZnS) via 5' thiol
amyloid-beta oligomer (AbO), from Abeta(1-40) peptide, sequence (P05067 672-711): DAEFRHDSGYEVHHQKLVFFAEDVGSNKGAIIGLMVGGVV

[2] = molecular target: amyloid-beta monomer (AbM) (UniProt P05067 672-711); assay: FRET fluorescence recovery (displacement from Au NRs@PDA); 20 nM AbM; no obvious recovery; QD-aptamer conjugates (in deionized water) with 0.5 mg/mL Au NRs@PDA stock (55 uL to 20 uL), 30 min quench, then 120 min with protein at room temperature; excitation 405 nm; buffer, salt and pH not stated; conditions: protein: commercial; label: QDs665 (CdSe/CdS/ZnS) via 5' thiol
amyloid-beta monomer (AbM), sequence (P05067 672-711): as above

Row | Binder | binding result [1] | binding result [2]
1 | B1 | binds | –
2 | B2 | – | no binding
